Laboratory results: paper PMC12861225

B1: Tissue-nonspecific alkaline phosphatase (TNALP): heterodimeric N140Q (protein)
parent chain: MISPFLVLAIGTCLTNSLVPEKEKDPKYWRDQAQETLKYALELQKLNTNVAKNVIMFLGDGMGVSTVTAARILKGQLHHNPGEETRLEMDKFPFVALSKTYNTNAQVPDSAGTATAYLCGVKANEGTVGVSAATERSRCNTTQGNEVTSILRWAKDAGKSVGIVTTTRVNHATPSAAYAHSADRDWYSDNEMPPEALSQGCKDIAYQLMHNIRDIDVIMGGGRKYMYPKNKTDVEYESDEKARGTRLDGLDLVDTWKSFKPRYKHSHFIWNRTELLTLDPHNVDYLLGLFEPGDMQYELNRNNVTDPSLSEMVVVAIQILRKNPKGFFLLVEGGRIDHGHHEGKAKQALHEAVEMDRAIGQAGSLTSSEDTLTVVTADHSHVFTFGGYTPRGNSIFGLAPMLSDTDKKPFTAILYGNGPGYKVVGGERENVSMVDYAHNNYQAQSAVPLRHETHGGEDVAVFSKGPMAHLLHGVHEQNYVPHVMAYAACIGANLGHCAPASSAGSLAAGPLLLALALYPLSVLF
B2: Tissue-nonspecific alkaline phosphatase (TNALP): heterodimeric N140Q/N303Q (protein)
parent chain: MISPFLVLAIGTCLTNSLVPEKEKDPKYWRDQAQETLKYALELQKLNTNVAKNVIMFLGDGMGVSTVTAARILKGQLHHNPGEETRLEMDKFPFVALSKTYNTNAQVPDSAGTATAYLCGVKANEGTVGVSAATERSRCNTTQGNEVTSILRWAKDAGKSVGIVTTTRVNHATPSAAYAHSADRDWYSDNEMPPEALSQGCKDIAYQLMHNIRDIDVIMGGGRKYMYPKNKTDVEYESDEKARGTRLDGLDLVDTWKSFKPRYKHSHFIWNRTELLTLDPHNVDYLLGLFEPGDMQYELNRNNVTDPSLSEMVVVAIQILRKNPKGFFLLVEGGRIDHGHHEGKAKQALHEAVEMDRAIGQAGSLTSSEDTLTVVTADHSHVFTFGGYTPRGNSIFGLAPMLSDTDKKPFTAILYGNGPGYKVVGGERENVSMVDYAHNNYQAQSAVPLRHETHGGEDVAVFSKGPMAHLLHGVHEQNYVPHVMAYAACIGANLGHCAPASSAGSLAAGPLLLALALYPLSVLF
B3: Tissue-nonspecific alkaline phosphatase (TNALP): heterodimeric N430D (protein)
parent chain: MISPFLVLAIGTCLTNSLVPEKEKDPKYWRDQAQETLKYALELQKLNTNVAKNVIMFLGDGMGVSTVTAARILKGQLHHNPGEETRLEMDKFPFVALSKTYNTNAQVPDSAGTATAYLCGVKANEGTVGVSAATERSRCNTTQGNEVTSILRWAKDAGKSVGIVTTTRVNHATPSAAYAHSADRDWYSDNEMPPEALSQGCKDIAYQLMHNIRDIDVIMGGGRKYMYPKNKTDVEYESDEKARGTRLDGLDLVDTWKSFKPRYKHSHFIWNRTELLTLDPHNVDYLLGLFEPGDMQYELNRNNVTDPSLSEMVVVAIQILRKNPKGFFLLVEGGRIDHGHHEGKAKQALHEAVEMDRAIGQAGSLTSSEDTLTVVTADHSHVFTFGGYTPRGNSIFGLAPMLSDTDKKPFTAILYGNGPGYKVVGGERENVSMVDYAHNNYQAQSAVPLRHETHGGEDVAVFSKGPMAHLLHGVHEQNYVPHVMAYAACIGANLGHCAPASSAGSLAAGPLLLALALYPLSVLF
B4: Tissue-nonspecific alkaline phosphatase (TNALP): heterodimeric N230Q/N271Q (protein)
parent chain: MISPFLVLAIGTCLTNSLVPEKEKDPKYWRDQAQETLKYALELQKLNTNVAKNVIMFLGDGMGVSTVTAARILKGQLHHNPGEETRLEMDKFPFVALSKTYNTNAQVPDSAGTATAYLCGVKANEGTVGVSAATERSRCNTTQGNEVTSILRWAKDAGKSVGIVTTTRVNHATPSAAYAHSADRDWYSDNEMPPEALSQGCKDIAYQLMHNIRDIDVIMGGGRKYMYPKNKTDVEYESDEKARGTRLDGLDLVDTWKSFKPRYKHSHFIWNRTELLTLDPHNVDYLLGLFEPGDMQYELNRNNVTDPSLSEMVVVAIQILRKNPKGFFLLVEGGRIDHGHHEGKAKQALHEAVEMDRAIGQAGSLTSSEDTLTVVTADHSHVFTFGGYTPRGNSIFGLAPMLSDTDKKPFTAILYGNGPGYKVVGGERENVSMVDYAHNNYQAQSAVPLRHETHGGEDVAVFSKGPMAHLLHGVHEQNYVPHVMAYAACIGANLGHCAPASSAGSLAAGPLLLALALYPLSVLF
B5: Tissue-nonspecific alkaline phosphatase (TNALP): heterodimeric N271Q (protein)
parent chain: MISPFLVLAIGTCLTNSLVPEKEKDPKYWRDQAQETLKYALELQKLNTNVAKNVIMFLGDGMGVSTVTAARILKGQLHHNPGEETRLEMDKFPFVALSKTYNTNAQVPDSAGTATAYLCGVKANEGTVGVSAATERSRCNTTQGNEVTSILRWAKDAGKSVGIVTTTRVNHATPSAAYAHSADRDWYSDNEMPPEALSQGCKDIAYQLMHNIRDIDVIMGGGRKYMYPKNKTDVEYESDEKARGTRLDGLDLVDTWKSFKPRYKHSHFIWNRTELLTLDPHNVDYLLGLFEPGDMQYELNRNNVTDPSLSEMVVVAIQILRKNPKGFFLLVEGGRIDHGHHEGKAKQALHEAVEMDRAIGQAGSLTSSEDTLTVVTADHSHVFTFGGYTPRGNSIFGLAPMLSDTDKKPFTAILYGNGPGYKVVGGERENVSMVDYAHNNYQAQSAVPLRHETHGGEDVAVFSKGPMAHLLHGVHEQNYVPHVMAYAACIGANLGHCAPASSAGSLAAGPLLLALALYPLSVLF
B6: Tissue-nonspecific alkaline phosphatase (TNALP): heterodimeric N140Q/N230Q (protein)
parent chain: MISPFLVLAIGTCLTNSLVPEKEKDPKYWRDQAQETLKYALELQKLNTNVAKNVIMFLGDGMGVSTVTAARILKGQLHHNPGEETRLEMDKFPFVALSKTYNTNAQVPDSAGTATAYLCGVKANEGTVGVSAATERSRCNTTQGNEVTSILRWAKDAGKSVGIVTTTRVNHATPSAAYAHSADRDWYSDNEMPPEALSQGCKDIAYQLMHNIRDIDVIMGGGRKYMYPKNKTDVEYESDEKARGTRLDGLDLVDTWKSFKPRYKHSHFIWNRTELLTLDPHNVDYLLGLFEPGDMQYELNRNNVTDPSLSEMVVVAIQILRKNPKGFFLLVEGGRIDHGHHEGKAKQALHEAVEMDRAIGQAGSLTSSEDTLTVVTADHSHVFTFGGYTPRGNSIFGLAPMLSDTDKKPFTAILYGNGPGYKVVGGERENVSMVDYAHNNYQAQSAVPLRHETHGGEDVAVFSKGPMAHLLHGVHEQNYVPHVMAYAACIGANLGHCAPASSAGSLAAGPLLLALALYPLSVLF
B7: Tissue-nonspecific alkaline phosphatase (TNALP): heterodimeric N140Q/N430D (protein)
parent chain: MISPFLVLAIGTCLTNSLVPEKEKDPKYWRDQAQETLKYALELQKLNTNVAKNVIMFLGDGMGVSTVTAARILKGQLHHNPGEETRLEMDKFPFVALSKTYNTNAQVPDSAGTATAYLCGVKANEGTVGVSAATERSRCNTTQGNEVTSILRWAKDAGKSVGIVTTTRVNHATPSAAYAHSADRDWYSDNEMPPEALSQGCKDIAYQLMHNIRDIDVIMGGGRKYMYPKNKTDVEYESDEKARGTRLDGLDLVDTWKSFKPRYKHSHFIWNRTELLTLDPHNVDYLLGLFEPGDMQYELNRNNVTDPSLSEMVVVAIQILRKNPKGFFLLVEGGRIDHGHHEGKAKQALHEAVEMDRAIGQAGSLTSSEDTLTVVTADHSHVFTFGGYTPRGNSIFGLAPMLSDTDKKPFTAILYGNGPGYKVVGGERENVSMVDYAHNNYQAQSAVPLRHETHGGEDVAVFSKGPMAHLLHGVHEQNYVPHVMAYAACIGANLGHCAPASSAGSLAAGPLLLALALYPLSVLF
B8: Tissue-nonspecific alkaline phosphatase (TNALP): heterodimeric N140Q/N271Q (protein)
parent chain: MISPFLVLAIGTCLTNSLVPEKEKDPKYWRDQAQETLKYALELQKLNTNVAKNVIMFLGDGMGVSTVTAARILKGQLHHNPGEETRLEMDKFPFVALSKTYNTNAQVPDSAGTATAYLCGVKANEGTVGVSAATERSRCNTTQGNEVTSILRWAKDAGKSVGIVTTTRVNHATPSAAYAHSADRDWYSDNEMPPEALSQGCKDIAYQLMHNIRDIDVIMGGGRKYMYPKNKTDVEYESDEKARGTRLDGLDLVDTWKSFKPRYKHSHFIWNRTELLTLDPHNVDYLLGLFEPGDMQYELNRNNVTDPSLSEMVVVAIQILRKNPKGFFLLVEGGRIDHGHHEGKAKQALHEAVEMDRAIGQAGSLTSSEDTLTVVTADHSHVFTFGGYTPRGNSIFGLAPMLSDTDKKPFTAILYGNGPGYKVVGGERENVSMVDYAHNNYQAQSAVPLRHETHGGEDVAVFSKGPMAHLLHGVHEQNYVPHVMAYAACIGANLGHCAPASSAGSLAAGPLLLALALYPLSVLF
B9: Tissue-nonspecific alkaline phosphatase (TNALP): heterodimeric N230Q (protein)
parent chain: MISPFLVLAIGTCLTNSLVPEKEKDPKYWRDQAQETLKYALELQKLNTNVAKNVIMFLGDGMGVSTVTAARILKGQLHHNPGEETRLEMDKFPFVALSKTYNTNAQVPDSAGTATAYLCGVKANEGTVGVSAATERSRCNTTQGNEVTSILRWAKDAGKSVGIVTTTRVNHATPSAAYAHSADRDWYSDNEMPPEALSQGCKDIAYQLMHNIRDIDVIMGGGRKYMYPKNKTDVEYESDEKARGTRLDGLDLVDTWKSFKPRYKHSHFIWNRTELLTLDPHNVDYLLGLFEPGDMQYELNRNNVTDPSLSEMVVVAIQILRKNPKGFFLLVEGGRIDHGHHEGKAKQALHEAVEMDRAIGQAGSLTSSEDTLTVVTADHSHVFTFGGYTPRGNSIFGLAPMLSDTDKKPFTAILYGNGPGYKVVGGERENVSMVDYAHNNYQAQSAVPLRHETHGGEDVAVFSKGPMAHLLHGVHEQNYVPHVMAYAACIGANLGHCAPASSAGSLAAGPLLLALALYPLSVLF
B10: Tissue-nonspecific alkaline phosphatase (TNALP): heterodimeric N303Q (protein)
parent chain: MISPFLVLAIGTCLTNSLVPEKEKDPKYWRDQAQETLKYALELQKLNTNVAKNVIMFLGDGMGVSTVTAARILKGQLHHNPGEETRLEMDKFPFVALSKTYNTNAQVPDSAGTATAYLCGVKANEGTVGVSAATERSRCNTTQGNEVTSILRWAKDAGKSVGIVTTTRVNHATPSAAYAHSADRDWYSDNEMPPEALSQGCKDIAYQLMHNIRDIDVIMGGGRKYMYPKNKTDVEYESDEKARGTRLDGLDLVDTWKSFKPRYKHSHFIWNRTELLTLDPHNVDYLLGLFEPGDMQYELNRNNVTDPSLSEMVVVAIQILRKNPKGFFLLVEGGRIDHGHHEGKAKQALHEAVEMDRAIGQAGSLTSSEDTLTVVTADHSHVFTFGGYTPRGNSIFGLAPMLSDTDKKPFTAILYGNGPGYKVVGGERENVSMVDYAHNNYQAQSAVPLRHETHGGEDVAVFSKGPMAHLLHGVHEQNYVPHVMAYAACIGANLGHCAPASSAGSLAAGPLLLALALYPLSVLF
B11: Tissue-nonspecific alkaline phosphatase (TNALP): heterodimeric N230Q/N303Q (protein)
parent chain: MISPFLVLAIGTCLTNSLVPEKEKDPKYWRDQAQETLKYALELQKLNTNVAKNVIMFLGDGMGVSTVTAARILKGQLHHNPGEETRLEMDKFPFVALSKTYNTNAQVPDSAGTATAYLCGVKANEGTVGVSAATERSRCNTTQGNEVTSILRWAKDAGKSVGIVTTTRVNHATPSAAYAHSADRDWYSDNEMPPEALSQGCKDIAYQLMHNIRDIDVIMGGGRKYMYPKNKTDVEYESDEKARGTRLDGLDLVDTWKSFKPRYKHSHFIWNRTELLTLDPHNVDYLLGLFEPGDMQYELNRNNVTDPSLSEMVVVAIQILRKNPKGFFLLVEGGRIDHGHHEGKAKQALHEAVEMDRAIGQAGSLTSSEDTLTVVTADHSHVFTFGGYTPRGNSIFGLAPMLSDTDKKPFTAILYGNGPGYKVVGGERENVSMVDYAHNNYQAQSAVPLRHETHGGEDVAVFSKGPMAHLLHGVHEQNYVPHVMAYAACIGANLGHCAPASSAGSLAAGPLLLALALYPLSVLF

Test: pNPP activity; mutant:WT plasmid 1:1 (heterodimers not confirmed)
Conditions: glycan lost; control: wild type plasmid only

enzymatic_activity, percent_of_wt, decreases:
B1
B2
B3
B4
B5
B6
B7
B8
B9
B10
B11
